Target: the molecule itself
Experiment: single-molecule photobleaching steps and spot intensity distribution (TIRF microscopy, HILO illumination); Halo-HM19 constructs expressed in living HeLa cells, stained with R110 Direct HaloTag ligand, spots in filopodia, 37 °C

B1: Halo-HM19^IQ3LZ (tail-truncated human myosin 19, residues 1-834, forced dimer with GCN4 leucine zipper, N-terminal HaloTag) (other)
chain: MLQQVNGHNPGSDGQAREYLREDLQEFLGGEVLLYKLDDLTRVNPVTLETVLRCLQARYMADTFYTNAGCTLVALNPFKPVPQLYSPELMREYHAAPQPQKLKPHVFTVGEQTYRNVKSLIEPVNQSIVVSGESGAGKTWTSRCLMKFYAVVATSPASWESHKIAERIEQRILNSNPVMEAFGNACTLRNNNSSRFGKFIQLQLNRAQQMTGAAVQTYLLEKTRVACQASSERNFHIFYQICKGASEDERLQWHLPEGAAFSWLPNPERSLEEDCFEVTREAMLHLGIDTPTQNNIFKVLAGLLHLGNIQFAASEDEAQPCQPMDDAKYSVRTAASLLGLPEDVLLEMVQIRTIRAGRQQQVFRKPCARAECDTRRDCLAKLIYARLFDWLVSVINSSICADTDSWTTFIGLLDVYGFESFPDNSLEQLCINYANEKLQQHFVAHYLRAQQEEYAVEGLEWSFINYQDNQPCLDLIEGSPISICSLINEECRLNRPSSAAQLQTRIETALAGSPCLGHNKLSREPSFIVVHYAGPVRYHTAGLVEKNKDPIPPELTRLLQQSQDPLLMGLFPTNPKEKTQEEPPGQSRAPVLTVVSKFKASLEQLLQVLHSTTPHYIRCIKPNSQGQAQTFLQEEVLSQLEACGLVETIHISAAGFPIRVSHRNFVERYKLLRRLHPCTSSGPDSPYPAKGLPEWCPHSEEATLEPLIQDILHTLPVLTQAAAITGDSAEAMPAPMHCGRTKVFMTDSMLELLECGRARVLEQCARCIQGGWRRHRHREQERQWRAVMLIQAAIRSWLTRKHIQRLHAAATVIKRAWQKWRIRMACLAAKELDGGTTHSYTSMKQLEDKVEELLSKNYHLENEVARLKKLVGERTSMKQLEDKVEELLSKNYHLENEVARLKKLVGERTSGSEL
modifications: rhodamine 110 (R110 Direct HaloTag ligand) on the HaloTag
notes: myosin 19 (Myo19, HM19), human, residues 1-834 (motor domain and three IQ motifs; 835 to 970 removed), cDNA from GeneCopoeia NM_001163735.1; also called R110-Halo-HM19^IQ3LZ; R110-Halo-HM19^IQ3-LZ; source: HeLa cells, transfected, in living cells; not shown: HaloTag, N-terminal, kept
  stoichiometry N: 2
